{"source": "patent US9820934B2", "about": "“Acid containing lipid formulations” (CAMURUS AB, priority 2007, dated 2017)", "test": "Dissolution of GLP-1 in lipid formulation containing P80 and MeSulf (visual: homogenous, transparent)", "format": "physicochemical", "conditions": "SPC/GDO/P80/EtOH/PG/MeSulf=41.0/41.0/5.0/3.0/10.0/0.5 wt %; nominal loads 3, 4, 5 and 6 wt % GLP-1(0); room temperature, 1-3 days", "from_the_text": "The lipid composition was the following: SPC/GDO/P80/EtOH/PG/MeSulf=41.0/41.0/5.0/3.0/10.0/0.5 wt %.", "data": [{"substance": "GLP-1(7-36)amide, acetate salt [GLP-1(Ac)]", "values": [{"measurement": "Dissolution of GLP-1 in the lipid formulation", "result": "complete dissolution"}]}]}
